# Source: patent publication US20230226096A1 (Orna Therapeutics, Inc., priority 2020, published 2023)
# B1: Bussuquara virus (nucleic acid)
# DNA: AGTATTTCTTCTGCGTGAGACCATTGCGACAGTTCGTACCGGTGAGTTTTGACTTAACGCAGTGAGAAAAGTTTTCGAGGAAAGACGAGAAGCGAATTCTCTGA
# modifications: chemistry not fully specified; the letters are possibly those of the target site
# B2: Rosavirus 2 GA7403 (nucleic acid, listed as Rosavirus sp.)
# DNA: CCAGGCATGGCGTTAAACATGCATTCCCTTCCCCTAGTAACCTCCCTTCGCCCCTTCCCCACGTTGTACCCCCTCCGAGATGGCTGCTAAGGCGCTTGCTGCTACAGCAGTCTCGTGTTTCGGGTGTTATAAGTGCTTTCTTTTCCACTCCACTCCCTGCCTATGGGGAGCGGAACGGCCTTGTCTCGGTCGTTGCTTCTTGCAGATCTTCACCCCTCCAGGCTTTCTGGACTCGCCAGGGGTGGAGTAGTAGGCGCACTGTCTAAGTGAAGGTAGCAGTGTTGTTGGCGAAGAGTTGTGGACCTACTTTGAGTTTGTAGCGATCATCCAGAGCTAGCGGATCTCCCCACGCGGTAACGCGTGCCTCTAGGCCCAAAAGGCACGGTGTTCACAGCACCCTTTGGATGGCGGGGGTGCCCCCCTCCGCACTTAAAGTAGAAAAACAGCTTAGTAGTCAAATAACATGGCTTTCCTCAAGCATTCAGTGCTACATGGGACTGAAGGATGCCCAGAAGGTACCCGCAGGCAACGATAAGCTCACTGTGGATCTGATCTGGGGCCCTGGGCCAGGTGCTATACACCTGGTTAAAACCAAATCTGGTAGTCAGGGTTAAAAAACGTCTAAGTCCCACCCCCCCGGGGACGGGGGGTTCCCTTAAACCCTCAACTGACACC
# B3: Yokose virus (nucleic acid, listed as Yokose virus)
# DNA: AGTAAATTTTGCGTGCTAGTCGCTGAGCGTCAGACCGCAAAGTGAGTTTTTAGTGATCTAAAGTGAGGAGTTATTCTTACTGTCATCAAACACTACAAATAAACACGTTGAAATTATTTCCGGAAGAACAACTGTCCGGAATCAAAGACG
# B4: Equine hepacivirus (nucleic acid, listed as Hepacivirus sp.)
# DNA: ACCTCCGTGCTATGCACGGTGCGTTGTCAGCGTTTTGCGCTTGCATGCGCTACACGCGTCGTCCAACGCGGAGGGATTCTTCCACATTACCATGTGTCACTCCCCCTATGGAGGGTTCCACCCCGCCCACACGGAAATAGGTTAACCATACCTATAGTACGGGTGAGCGGGTCCTCCTAGGGCCCCCCCGGCAGGTCGAGGGAGCTGAAATTCGTGAATCCGTGAGTACACGGAAATCGCGGCTTGAACGTCATACGTGACCTTCGGAGCCGAAATTTGGGCGTGCCCCACGAAGGAAGGCGGGGGCGGTGTTGGGCCGCCGCCCCCTTTATCCCACGGTCTGATAGGATGCTTGCGAGGGCACCTGCCGGTCTCGTAGACCATAGGAC
# B5: Hepacivirus B (nucleic acid)
# DNA: ACCACAAACACTCCAGTTTGTTACACTCCGCTAGGAATGCTCCTGGAGCACCCCCCCTAGCAGGGCGTGGGGGATTTCCCCTGCCCGTCTGCAGAAGGGTGGAGCCAACCACCTTAGTATGTAGGCGGCGGGACTCATGACGCTCGCGTGATGACAAGCGCCAAGCTTGACTTGGATGGCCCTGATGGGCGTTCATGGGTTCGGTGGTGGTGGCGCTTTAGGCAGCCTCCACGCCCACCACCTCCCAGATAGAGCGGCGGCACTGTAGGGAAGACCGGGGACCGGTCACTACCAAGGACGCAGACCTCTTTTTGAGTATCACGCCTCCGGAAGTAGTTGGGCAAGCCCACCTATATGTGTTGGGATGGTTGGGGTTAGCCATCCATACCGTACTGCCTGATAGGGTCCTTGCGAGGGGATCTGGGAGTCTCGTAGACCGTAGCAC
# modifications: Hepacivirus B
# B6: Rosavirus C NFSM6F (nucleic acid)
# DNA: CAGGGAGATCTCCATGAATAATCTTTTCCACCCTCTTTAGCGTCTATGCTATTGAGGACGGGTTGGAGCCCCGTTGACCCAGCGTCAGAGTGTGTCGGTAGCAGGCTTTCTGCTCTCGCCCCATGCCGGCCACACCTCCCATTAGTGATGTGAAGGTTGTAAGTTACATGTGAAAAGGTTTCTAATAATTGAGCTGAATGTAGCGATTACCTAAGGTGAGCGGATTCCCCCACGTGGTAACACGTGCCTCTCAGGCCAAAAGCCAAGGTGTTAAAAGCACCCCTTAGGTAGGCCACTACCCCGTGGCCTCAGTTCTCTTAGAAGATTCACTTAGTAGTGTGTGCACTGGCAACTCTTAAGCAGAGCTAGTGAGTGGGCTAAGGATGCCCTGAAGGTACCCGCAGGTAACGTTAAGACACTGTGGATCTGATCAGGGGCTCGAGTGCTGAAGCTTTACAGAGGTAGCTCGAGTTAAAAAACGTCTATGCCCCTCCCCCACGGGAGTGGGGGTTCCCCCACACCAATTTTAGATTGCACT
# modifications: Rosavirus C
# B7: Zika Virus (nucleic acid, listed as Zika virus)
# DNA: AGTTGTTGATCTGTGTGAGTCAGACTGCGACAGTTCGAGTCTGAAGCGAGAGCTAACAACAGTATCAACAGGTTTAATTTGGATTTGGAAACGAGAGTTTCTGGTC
# modifications: chemistry not fully specified; the letters are possibly those of the target site
# B8: Theiler's disease-associated virus (nucleic acid)
# DNA: TGATACCGTGTCCCGGTACGACCTCGCGCGTCCCCAAGCTCGCCCTGAGGGGGGAGCGTAAGGGCGCGTAGTGGGGTAGCCCCCCAAACCGAGCCACCCTAGTGAGTGACTTTAGAATGGTTAGGGAGACTACCGCCTTCGCTGTTTGGGGACCTAATGATCCGCGTGCCAGGGTTCTTCGGGTAAATCCCGGCGCGGTGTTTTGGGTTCAGGGCAGTAGGGGCAGACGGGCCAGCAGTCGCTGGTTCCTGGTACCACCACCCTATCCGGACGACCTCCCTCACGAAAGGTCGCCACGGTCTGTGGCTCGACGACGCCTATAATTCAGTCCGAGGGGCGCAGCCCTCGTTAAACTTAGGCAAGGTTCCTCGCCATTGATTTGGCCAGGGGTTTAAGTGAACGCCGCCCTTTTAATGTTTAATAGGGTTCTTTCCCGGCGGGTTGACAAACACTTCCCTGGGCTCTTCGTTGGCCTCGGTTCCTTGATGCTTCGGCACCCATGAGCGCACAGGGGGGGGACCCTGCGACAGTCCGCCAAGAGGAAAATCCTTCGGGTGACCTCGTGCGCAACCCAATCCCTTCTTCTTCCACATGGCGTGTCTGTGGTGCATGCTGTG
# B9: Hepacivirus I (nucleic acid)
# DNA: CAGGGTTTCGACCCTGGCCCGGATACCTATCGCCTTACGCCGAAAGGTAACGAGTAGGAGTCGGGTCCCCAGGCCCTTACCGCCACCAAGCCAGGTGGGGAGGTATGGGAGCCGGGGGGTGCAGCTGGTAGCTCCATGGGGGACGCCCCGTGAGCGGATGCTGCATCGATACCGGGTTAGCTCTCTGGGAGAGCGGCACTTGACACCACGAATCCGGGAACCGGACAATCGCCGGCGTGGGACGCGTTGCCTCCGTGGCCGAGCAATTTGGCATGCCCGTGGTGAAGAGTGATGGTGGGGGGGGGCCCCCCTTCCAGTACCGTACTGCCTGATAGGGTCTTGCCTCAAGCCCAGAGAGTCGAGGCTGAAAACCGCCATC
# modifications: Hepacivirus I
# B10: Culex theileri flavivirus (nucleic acid, listed as Flavivirus sp.)
# DNA: ATATAAATCCCAGTTTGGTTAAACCTATTTCAAGGCTTAAGTTGTTTATTATTTTATCGCCGCTCGTGACTATAAAGTTGCCTAGCGGAGAGAGATAAAGAAGAAGGAGTTCAAGGCTCAGGGCAGGGCGCAAGTTCCCTGGTCCCTAGGCCGCTCGCAGGAAGGAGGAGTGAAGAAGAAGAAAGAGAAGGAGAGGACCACCGCCGAAAGAAGGCAGGTGCCTCACAAGAGGGCCAACCAGCGTGTTGGACCAGTGGCCAACGCCGGACGGCGTGGTGGCCTGCTGGGACGCCTGGGGATTGGATGGAGTGCCTTCCTACAGGAAGACATCGTTCAAGCCATC
# B11: GB virus C/Hepatitis G virus (nucleic acid)
# DNA: CCCCCGGCACTGGGTGCAAGCCCCAGAAACCGACGCCTATCTAAGTAGACGCAATGACTCGGCGCCGACTCGGCGACCGGCCAAAAGGTGGTGGATGGGTGATGACAGGGTTGGTAGGTCGTAAATCCCGGTCACCTTGGTAGCCACTATAGGTGGGTCTTAAGAGAAGGTTAAGATTCCTCTTGTGCCTGCGGCGAGACCGCGCACGGTCCACAGGTGTTGGCCCTACCGGTGGGAATAAGGGCCCGACGTCAGGCTCGTCGTTAAACCGAGCCCGTTACCCACCTGGGCAAACGACGCCCACGTACGGTCCACGTCGCCCTTCAATGTCTCTCTTGACCAATAGGCGTAGCCGGCGAGTTGACAAGGACCAGTGGGGGCCGGGGGCTTGGAGAGGGACTCCAAGTCCCGCCCTTCCCGGTGGGCCGGGAAATGC
# B12: Equine Pegivirus 1 (nucleic acid, listed as Pegivirus sp.)
# DNA: AGAATGGGGAGTTAACTCCTGGCACTGGCCCGAAGCATGAACTGATCGCGGTGGCAGGGTTCTTCGGGTAAATCCCGGCCGCGTGTTGTGATTGTGTTAGGGCAGGTGACAGTCGGCAGGGTCGACCCCCTGCTTCAGGACCACTGTCTTCCTGGACGACCGTTGCTGAAAAAGGGCCGCCACGGTCTGTAGCTCGCCGACGCTTCTAATTCAGGCCGGAGGACCACGCTCCGTAATCGAGCCCAAGTACTCAAACCCCAGCACCCCTGGGTCACGCCCTACGCCGCCCTTTTAACGCTTCGGCTAATAGGGTCTATCCGGCGGGTTGACAAAGGGCGCAGGGTTACCTGGTACTACGAGCTTGGGTGTCCCTGGGAGTAATCCCAGGGTGCC
# B13: Rodent pegivirus (nucleic acid, listed as Pegivirus sp.)
# DNA: GGACTTCGGTCCCCCTGTTACTCTGCGAGCCACCGCAGAGCCAGGGTTGGTACGCCCGAGGTGTTAGACCCCGGCCGAAAGCTCCTAACCATGGGGTTAGTAGGACGTGGTAAATGCCACTGAGGGGTTGGAGAGCTGGTAGAGCGAGTAAGTCGGCGTAAGGCCCGAGTACGGGCCTCCCAGCCCGGGTCAGCCTAAACCTGGCTGTGATACCCGGTGCATGGAGGGCGTGTCCCAACGCTCGATCGCTGTAGGGTGGGTCCCTGCAGTTGGGTGTGGCTACCCTGCTCGTACTGCTTGATAGAGTCCCGGCGGACGGACCAGCTCTCGTCAGTCCGTGGAGTTGCAC
# System: HEK293 cells
# Type: cell-based, human
# Details: luminescence from secreted Gluc in supernatant 24 hours after transfection of HEK293 cells; circular RNA encoding Gluc with the named IRES (UTR truncated to 675 nt)
row,Molecule,Expression
1,B1,8.20E+04
2,B2,5.05E+06
3,B3,8.55E+04
4,B4,8.40E+04
5,B5,8.84E+04
6,B6,6.84E+05
7,B7,8.61E+04
8,B8,7.84E+04
9,B9,7.50E+04
10,B10,8.52E+04
11,B11,1.36E+05
12,B12,8.80E+04
13,B13,1.79E+05
